This test has as its target Cry1AcMod activated toxin (Bacillus thuringiensis) (UniProt P05068). Kind of test: SDS-PAGE and western blot of the 200 kDa oligomer band. For orientation: A western blot detects proteins with antibodies after separation by electrophoresis.

Consider “Cry1AcMod activated toxin (from UniProt P05068 1-1178) (domain or fragment)”, for which the optical density of the 200 kDa oligomer band with BBMV from the resistant strain relative to BBMV from the susceptible strain (=100%) came to 100%.

These data come from paper PMC5443830.
